Experiment [1] deals with T1, SR344 (N-terminal 1st to 344th amino acids of soluble human IL-6R) (human, UniProt P08887 20-344, limits assumed).
T1 construct: also called recombinant soluble human IL-6 receptor; soluble human IL-6 receptor
T1 sequence (looked up): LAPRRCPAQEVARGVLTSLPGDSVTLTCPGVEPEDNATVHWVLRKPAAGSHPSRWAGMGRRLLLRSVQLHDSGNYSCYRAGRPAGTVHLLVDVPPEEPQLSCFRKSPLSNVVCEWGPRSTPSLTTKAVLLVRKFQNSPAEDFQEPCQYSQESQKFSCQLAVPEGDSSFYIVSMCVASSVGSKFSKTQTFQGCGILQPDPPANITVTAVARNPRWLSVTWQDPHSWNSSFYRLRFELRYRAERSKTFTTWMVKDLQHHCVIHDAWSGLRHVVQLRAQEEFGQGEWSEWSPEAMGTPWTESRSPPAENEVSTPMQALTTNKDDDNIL
The experiment is described as follows: SPR (Biacore T100), antibody captured on Protein A/G, SR344 as analyte, 37 C. Background: SPR reads the build-up and loss of mass on a sensor chip optically.

Experiment [2] concerns the target T2, soluble GPC3 core polypeptide (human, UniProt P51654 25-563).
T2 construct: also called soluble GPC3 core protein; glypican 3 (antigen)
The experiment in a line: competitive ELISA, soluble GPC3 core polypeptide on the plate, competitor biotinylated GPC3-H2L2. Background: In an ELISA, binding on a coated surface is turned into a signal by an enzyme label.

T2 sequence (P51654 other isoform, or with tags, fused parts or gaps limits assumed): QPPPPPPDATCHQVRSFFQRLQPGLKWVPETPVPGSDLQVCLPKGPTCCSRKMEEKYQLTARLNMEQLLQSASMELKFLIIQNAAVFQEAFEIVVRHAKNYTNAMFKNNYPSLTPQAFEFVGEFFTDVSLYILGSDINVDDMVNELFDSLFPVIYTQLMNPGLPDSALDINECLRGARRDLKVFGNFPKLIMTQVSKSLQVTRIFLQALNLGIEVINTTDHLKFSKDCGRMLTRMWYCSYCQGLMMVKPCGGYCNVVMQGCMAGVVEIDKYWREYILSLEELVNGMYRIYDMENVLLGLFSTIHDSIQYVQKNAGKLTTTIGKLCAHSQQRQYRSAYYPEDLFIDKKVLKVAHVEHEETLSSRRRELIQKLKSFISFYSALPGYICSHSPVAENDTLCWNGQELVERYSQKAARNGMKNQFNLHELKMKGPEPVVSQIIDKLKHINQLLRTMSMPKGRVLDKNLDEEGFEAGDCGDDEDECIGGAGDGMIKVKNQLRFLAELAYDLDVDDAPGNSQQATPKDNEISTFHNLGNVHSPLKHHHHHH

B1: RDC_23 (antibody, V domains shown)
VH: QVQLQESGPGLVRPSQTLSLTCTVSGYSITSDHAWSWVRQPPGRGLEWIGYISYSGITTYNPSLKSRVTMLRDTSKNQFSLRLSSVTAADTAVYYCARVLARITAMDYWGQGSLVTVSS
VL: DIQMTQSPSSLSASVGDRVTITCRASQDISSYLNWYQQKPGKAPKLLIYYTSRLHSGVPSRFSGSGSGTDFTFTISSLQPEDIATYYCGQGNRLPYTFGQGTKVEIK
notes: also called RDC_5H / RDC_11L
B1: in experiment [1], the “fold weaker affinity for SR344 than for rhIL-6sR” value amounted to 2 fold.

B2: GPC3_H2L2 (antibody, human IgG1, kappa, V domains shown)
VH: QVQLVQSGAEVKKPGASVKVSCKASGYTFTDYEMHWVRQAPGQGLEWMGALDPKTGDTAYSQKFKGRVTLTADKSTSTAYMELSSLTSEDTAVYYCTRFYSYTYWGQGTLVTVSS
VL: DVVMTQSPLSLPVTPGEPASISCRSSQSLVHSNRNTYLHWYLQKPGQSPQLLIYKVSNRFSGVPDRFSGSGSGTDFTLKISRVEAEDVGVYYCSQNTHVPPTFGQGTKLEIKR
Consider B2, for which the binding result in experiment [2] is given as “binds”.

B3: GPC3_H3L3 (antibody, human IgG1, kappa, V domains shown)
VH: QVQLVQSGAEVKKPGASVTVSCKASGYTFTDYEMHWIRQPPGEGLEWIGAIDPKTGDTAYSESFQDRVTLTADKSTSTAYMELSSLTSEDTAVYYCTRFYSYTYWGQGTLVTVSS
VL: DIVMTQSPLSLPVTPGEPASISCQASESLVHSNRNTYLHWYLQKPGQSPQLLIYKVSNRFSGVPDRFSGSGSGTDFTLKISRVEAEDVGVYYCSQNTHVPPTFGQGTKVEIER
Turning to B3, the binding result in experiment [2] is on record as “binds”.

The values are drawn from patent US20250011443A1 (published 2025).
